One block for each substance: values may come before it.
Key:
Test in all cases: thermodynamic integration MD simulation (TIMD; computed, not an experimental measurement)
[1] = biological target: rat gephyrin E-domain (amino acids 318-736) D664N (other chain of the homodimer); settings: E-domain dimer; value per mutation point; read off a plot
[2] = biological target: rat gephyrin E-domain (amino acids 318-736) G375D (other chain of the homodimer); settings: E-domain dimer; value per mutation point; read off a plot
[3] = biological target: rat gephyrin E-domain (amino acids 318-736) G545A (other chain of the homodimer); settings: E-domain dimer; value per mutation point; read off a plot
[4] = biological target: rat gephyrin E-domain (amino acids 318-736) G545S (other chain of the homodimer); settings: E-domain dimer; value per mutation point; read off a plot
[5] = biological target: rat gephyrin G-domain (amino acids 1-188) A91T (other chains of the homotrimer); settings: G-domain trimer; value per mutation point; read off a plot
[6] = biological target: rat gephyrin G-domain (amino acids 1-188) V43L (other chains of the homotrimer); settings: G-domain trimer; value per mutation point; read off a plot

- ddG [1]: -2.93 kJ/mol
Substance: rat gephyrin E-domain WT (amino acids 318-736) D664N

- ddG [4]: 0.837 kJ/mol
Substance: rat gephyrin E-domain WT (amino acids 318-736) G545S

- ddG [6]: -3.97 kJ/mol
Substance: rat gephyrin G-domain WT (amino acids 1-188) V43L

Second part, the substance before the results:

Substance: rat gephyrin E-domain WT (amino acids 318-736) G375D
- ddG [2]: 23.8 kJ/mol

Substance: rat gephyrin E-domain WT (amino acids 318-736) G545A
- ddG [3]: 1.26 kJ/mol

Substance: rat gephyrin G-domain WT (amino acids 1-188) A91T
- ddG [5]: 7.11 kJ/mol

— article PMC7822942
